This data set can be described thus: protein stability index of a GFP-peptide fusion (GPS, HEK-293T) (PSI 1-6); higher = more stable. As to conditions: c terminus: a fixed tail appended.

This passage reports protein stability index results from the supplement of paper PMC10567573.

± gives the standard deviation.
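Also: 24-mer peptide tiles fused after GFP, lentivirally expressed, FACS-sorted into six equal bins by GFP/DsRed ratio, decoded by Illumina sequencing, PSI is the read-weighted mean bin number.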

Consider GSCEDEPMDSTMDDAVAGDFALIN [ATE1], for which the protein stability index worked out at 5.25 ± 0.25 (treatment: DMSO) and 5.44 ± 0.16 (treatment: MLN4924 1 uM, 8 h).
Turning to GSELKDSIPVTELSASGPFESHDL [POMP], the protein stability index by setting is: (treatment: DMSO) 5.28 ± 0.34; (treatment: MLN4924 1 uM, 8 h) 5.18 ± 0.57.
On the same counts, the results for GSGQNEESPRKRKKATEAIDSLRK [FBXO28] are 5.11 ± 0.2 and 5.17 ± 0.2.
As for GSLCSPWAAPRVGPLPPAPAMVRI [YPEL3], the protein stability index runs as follows: (treatment: DMSO) 2.95 ± 0.15; (treatment: MLN4924 1 uM, 8 h) 3.07 ± 0.45.
On the same counts, the results for GSLGFEPVYVSCIAQDTCTTTDHS [SPAG8] are 3.37 ± 0.35 and 3.64 ± 0.17.
On the same counts, the results for GSSPKSKTKWTKEDGHRTSTSAVP [ADD1] are 4.96 ± 0.17 and 4.81 ± 0.25.
On the same counts, the results for GSTNLTGLFFPPQLNGTANDTAGP [NFE2L1] are 3.93 ± 0.14 and 4 ± 0.25.
The sequence GSYSSTMNGHQNGLDSPPLYPSAP [ESRRG] had a protein stability index (treatment: DMSO) of 4.07 ± 0.23 and a protein stability index (treatment: MLN4924 1 uM, 8 h) of 4.3 ± 0.14.
Regarding GTARYMSINTHLGKEQSRRDDLEA [CSNK1G3], the protein stability index is, setting by setting: (treatment: DMSO) 4.75 ± 0.42; (treatment: MLN4924 1 uM, 8 h) 4.63 ± 0.16.
Taken in the same sequence, the figures for GTLCIGAAAFSQCEEWSFFHAYYY [KCNK9] were 2.58 ± 0.53 and 2.9 ± 0.66.
Regarding GTTMASGGRFRCPSCRHEVVLDRH [TRIM55], the protein stability index was 2.08 ± 0.41 (treatment: DMSO) and 2.12 ± 0.22 (treatment: MLN4924 1 uM, 8 h).
Consider GTVFQELNKLYPTHACREYLKNLP [TPH1], for which the protein stability index by setting is: (treatment: DMSO) 2.46 ± 0.34; (treatment: MLN4924 1 uM, 8 h) 2.38 ± 0.26.
As for GVSANASKAWHQKSHFQNSREWSG [PBXIP1], the protein stability index worked out at 3.22 ± 0.33 (treatment: DMSO) and 3.23 ± 0.3 (treatment: MLN4924 1 uM, 8 h).
Regarding GYNDYTINVWDVLKGSRVSILFGH [GNB5], the protein stability index worked out at 2.28 ± 0.39 (treatment: DMSO) and 2.3 ± 0.37 (treatment: MLN4924 1 uM, 8 h).
As to GYRTSAVASGLQFDVETRHVFIGD [WDFY2], the protein stability index (treatment: DMSO) is 2.86 ± 0.31 and the protein stability index (treatment: MLN4924 1 uM, 8 h) amounted to 3.15 ± 0.36.
In turn, GYVPSNYVERKNSLKKGSLVKNLK [NCK2] showed a protein stability index (treatment: DMSO) of 3.96 ± 0.16 and a protein stability index (treatment: MLN4924 1 uM, 8 h) of 3.89 ± 0.19.
Taken in the same sequence, the figures for HAAAVNGDKGALQRLIVGNSALKD [INVS] were 4.29 ± 0.25 and 4.29 ± 0.32.
Consider HAGKKGKLSEHLRYCDSILREMLS [BRD3], for which the protein stability index is 2.16 ± 0.41 (treatment: DMSO) and 2.21 ± 0.3 (treatment: MLN4924 1 uM, 8 h).
On the same counts, the results for HAYFRGHSPSCLARVTGELTMTFP [FCHO1] are 2.21 ± 0.52 and 2.23 ± 0.13.
Take HCGVLEFVADEGICYLPHWMMQNL [UFD1]: the protein stability index by setting is: (treatment: DMSO) 2.57 ± 0.59; (treatment: MLN4924 1 uM, 8 h) 2.13 ± 0.39.
On the same counts, the results for HCLDQVGLFRKSGVKSRIQALRQM [DLC1] are 2.48 ± 0.36 and 2.4 ± 0.25.
For HCPESGEEAVILLEDLERELDEPQ [ZSCAN9], the protein stability index by setting is: (treatment: DMSO) 5.55 ± 0.24; (treatment: MLN4924 1 uM, 8 h) 5.46 ± 0.44.
On the same counts, the results for HCTTVDGQRQLMVPARDGTSCKLT [ADAMTSL2] are 4.41 ± 0.2 and 4.44 ± 0.11.
Regarding HDELLAEHIKSLLIKNNSLPRKRQ [INTS3], the protein stability index reads like this: (treatment: DMSO) 5 ± 0.17; (treatment: MLN4924 1 uM, 8 h) 4.98 ± 0.2.
On the same counts, the results for HFERRDNMNDNFLEGEEENELTLN [CHGB] are 5.53 ± 0.06 and 5.61 ± 0.21.
In the case of HGHNIGKKMSCQQFIANLDQLNDG [PSD2], the protein stability index by setting is: (treatment: DMSO) 3.26 ± 0.24; (treatment: MLN4924 1 uM, 8 h) 3.29 ± 0.16.
On the same counts, the results for HGLPFLPGTSFKDSTKTAFHRSQT [EFHC1] are 3.53 ± 0.15 and 3.63 ± 0.087.
On to HHAALNGHVEMVNLLLAKGANINA [ANKRD44], for which the protein stability index runs as follows: (treatment: DMSO) 2.51 ± 0.4; (treatment: MLN4924 1 uM, 8 h) 2.89 ± 0.2.
Taken in the same sequence, the figures for HHAQTSKTERINALELLGATFVDK [FEM1C] were 3.83 ± 0.12 and 3.86 ± 0.31.
For the sequence HKTAGKRYVYRFVCDLQSLLGYTP [ETS1], the protein stability index runs as follows: (treatment: DMSO) 3.08 ± 1; (treatment: MLN4924 1 uM, 8 h) 2.66 ± 0.57.
Taken in the same sequence, the figures for HLARHAVACFLTRGDLWISWEEGM [CRY1] were 3.01 ± 0.72 and 2.98 ± 0.47.
Taken in the same sequence, the figures for HLRIHTGEKPYKCTHCSKSFRQRA [ZNF449] were 2.83 ± 0.43 and 3.11 ± 0.38.
On the same counts, the results for HMIQGAGSLEKALPIIQSNQVSSN [DLC1] are 4.22 ± 0.23 and 4.27 ± 0.24.
Where the note is “treatment: MLN4924 1 uM, 8 h”, HPFLYLSLEISPQNVDVNVHPTKH [MLH1] registered a protein stability index of 2.37 ± 0.34.
Take HQTLKCSALATQYMHCVNHAKQSM [CHCHD3]: the protein stability index is, setting by setting: (treatment: DMSO) 2.1 ± 0.22; (treatment: MLN4924 1 uM, 8 h) 2.29 ± 0.17.
Consider HRILLLAISLTKCLESTKLLADLK [MIA2], for which the protein stability index came to 2.73 ± 0.35 (treatment: DMSO) and 3.339 ± 0.011 (treatment: MLN4924 1 uM, 8 h).
On the same counts, the results for HSTSLKVPLARSLQISEELLSRNQ [LCOR] are 4 ± 0.24 and 3.97 ± 0.099.
In the case of HTFAGDDCQAGLNFADEDEAQAFR [WAS], the protein stability index runs as follows: (treatment: DMSO) 5.26 ± 0.18; (treatment: MLN4924 1 uM, 8 h) 4.92 ± 0.38.
Regarding HVDPEEPWSPCSARFITDFLDNGY [ADAMTS4], the protein stability index (treatment: DMSO) was 2.57 ± 0.39 and the protein stability index (treatment: MLN4924 1 uM, 8 h) is 2.88 ± 0.71.
In the case of HVGDFARDLAARWKKLVLVDRNTR [ELOA2], the protein stability index came out at 2.39 ± 0.29 (treatment: DMSO) and 2.86 ± 0.34 (treatment: MLN4924 1 uM, 8 h).
On the same counts, the results for HVTHWMGQPFNSDDRNTACHHGLV [DLC1] are 2.51 ± 0.28 and 2.92 ± 0.31.
For HYICPRLGGIGFSSCIVCLFVGLY [SLC6A17], the protein stability index is, setting by setting: (treatment: DMSO) 2.39 ± 0.54; (treatment: MLN4924 1 uM, 8 h) 2.3 ± 0.21.
IAKYSDGASKAAGVFGFFATIVFA [CMTM3]: the protein stability index came to 2.86 ± 0.57 (treatment: DMSO) and 2.74 ± 0.41 (treatment: MLN4924 1 uM, 8 h).
On the same counts, the results for IALYFVSKKFKNCFQSCLCCCCYQ [EDNRA] are 3.19 ± 1.1 and 2.13 ± 1.4.
On the same counts, the results for IDIVAIIPYFITLGTELAERQGNG [KCNA3] are 2.97 ± 0.38 and 3.29 ± 0.59.
Taken in the same sequence, the figures for IEKWVILEKDFSIYGGELGPMMKL [ACSBG2] were 2.56 ± 0.71 and 2.38 ± 0.44.
Sequence IEMFKSITHSTVGSKGEKDLGASS [EHMT1] displayed a protein stability index (treatment: DMSO) of 4.23 ± 0.15 and a protein stability index (treatment: MLN4924 1 uM, 8 h) of 3.85 ± 0.36.
Regarding IGWFPSNYVLEEVDEAAAESPSFL [NCK2], the protein stability index amounted to 3.93 ± 0.24 (treatment: DMSO) and 4.13 ± 0.23 (treatment: MLN4924 1 uM, 8 h).
As for IGWKTVRMYPFQIHSIALSTFASL [CDS2], the protein stability index by setting is: (treatment: DMSO) 2.69 ± 0.65; (treatment: MLN4924 1 uM, 8 h) 2.65 ± 0.45.
For the sequence IIALIALSVGQYNCPGQYTFSMPS [CD69], the protein stability index by setting is: (treatment: DMSO) 3.51 ± 0.45; (treatment: MLN4924 1 uM, 8 h) 3.3 ± 0.48.
In the case of IIESFTELARIVLLRHRMNWLGRP [RAB40A], the protein stability index (treatment: DMSO) is 3.18 ± 0.72 and the protein stability index (treatment: MLN4924 1 uM, 8 h) worked out at 2.79 ± 0.47.
On the same counts, the results for IIKICDFGFAQILIPGDAYTDYVA [CDKL4] are 2.6 ± 0.59 and 2.81 ± 0.95.
On the same counts, the results for IIKKVAEVALDKGCSQFRLAVLDW [SAT2] are 2.77 ± 0.4 and 2.82 ± 0.6.
The sequence IKNLYAFNLFCQKRFDESMQVFAK [VPS39] came in with a protein stability index (treatment: DMSO) of 2.19 ± 0.29 and a protein stability index (treatment: MLN4924 1 uM, 8 h) of 1.96 ± 0.21.
For ILAETGIRKTVKRLRKHQHVGDFA [ELOA2], the protein stability index reads like this: (treatment: DMSO) 2.78 ± 0.23; (treatment: MLN4924 1 uM, 8 h) 3.16 ± 0.49.
On the same counts, the results for ILELYNIDSHLLLSVLPQLEFKLK [PDS5B] are 2.64 ± 0.53 and 2.45 ± 0.78.
As to ILGGSGPVRKLYDDCSSTIVEDPQ [ESRRG], the protein stability index amounted to 4.37 ± 0.3 (treatment: DMSO) and 4.41 ± 0.3 (treatment: MLN4924 1 uM, 8 h).
On the same counts, the results for ILLQEIPIRSISLRSCYFSDPDCS [FBXO39] are 2.55 ± 0.54 and 2.91 ± 0.72.
Take ILTIMATLKIRNSNFYTVAVTSLS [TMEM106C]: the protein stability index stood at 3.3 ± 0.36 (treatment: DMSO) and 3.16 ± 0.38 (treatment: MLN4924 1 uM, 8 h).
On the same counts, the results for ILVNLQGTVVFLLSLFIPESPRWL [SLC22A15] are 3.12 ± 0.14 and 3.23 ± 0.48.
Turning to IMELTGGGQESSGLNLGKKISVPR [MYOZ1], the protein stability index worked out at 3.58 ± 0.19 (treatment: DMSO) and 3.83 ± 0.33 (treatment: MLN4924 1 uM, 8 h).
For the sequence IMLKNISQDERLDVLLTLKHTVKE [IQUB], the protein stability index reads like this: (treatment: DMSO) 2.45 ± 0.56; (treatment: MLN4924 1 uM, 8 h) 2.09 ± 0.34.
Taken in the same sequence, the figures for IPAEENASTSTPSSTLVRPIRSRR [FAM189A2] were 5.29 ± 0.16 and 5.33 ± 0.19.
Regarding IRALLNLHTDVGSVRMRRAEKSVA [NEK8], the protein stability index runs as follows: (treatment: DMSO) 2.42 ± 0.21; (treatment: MLN4924 1 uM, 8 h) 2.53 ± 0.19.
For the sequence IREKSRLFDTKHDVYSFAIVIWGV [RIPK4], the protein stability index was determined as 3.27 ± 0.68 (treatment: DMSO) and 2.9 ± 0.83 (treatment: MLN4924 1 uM, 8 h).
On the same counts, the results for IRGRYLVALGHAYHPEEFVCSQCG [PDLIM7] are 2.51 ± 0.18 and 2.77 ± 0.3.
With IRSSFISSLSFFLKKMGKRLDYLN [FBXO39], the protein stability index is, setting by setting: (treatment: DMSO) 2.71 ± 0.61; (treatment: MLN4924 1 uM, 8 h) 2.81 ± 0.56.
Take ISSTTCGRQLEKVPEKRDSGMTEV [SPATS1]: the protein stability index was determined as 4.27 ± 0.24 (treatment: DMSO) and 4.38 ± 0.35 (treatment: MLN4924 1 uM, 8 h).
On the same counts, the results for ITKQGDGVDFLSWFLNALHSALGG [USP39] are 2.22 ± 0.47 and 2.11 ± 0.21.
For ITMMALKVLGELNILPNTQKVTCF [TENT5D], the protein stability index runs as follows: (treatment: DMSO) 2.86 ± 0.59; (treatment: MLN4924 1 uM, 8 h) 2.31 ± 0.75.
As to ITNQVVAQVDGAAMFAADPKKPIG [RAD51], the protein stability index came to 4.58 ± 0.11 (treatment: DMSO) and 4.51 ± 0.2 (treatment: MLN4924 1 uM, 8 h).
Regarding IYSTKLYRFFKYIENRDVAKSVLK [BTBD10], the protein stability index by setting is: (treatment: DMSO) 3.1 ± 0.97; (treatment: MLN4924 1 uM, 8 h) 2.37 ± 0.61.
KALSRKSTSFRVYIMAFDIKSEDM [FBXO33]: the protein stability index by setting is: (treatment: DMSO) 2.74 ± 0.54; (treatment: MLN4924 1 uM, 8 h) 2.6 ± 0.55.
